Laboratory results taken from patent publication US20110027291A1, “METHODS, SYSTEMS AND PRODUCTS FOR PREDICTING RESPONSE OF TUMOR CELLS TO A THERAPEUTIC AGENT AND TREATING A PATIENT ACCORDING TO THE PREDICTED RESPONSE” (MERRIMACK PHARMACEUTICALS, INC., priority 2008, published 2011).

What was measured:
[1] = target: T1, ErbB2 (Homo sapiens, UniProt P04626); experiment: Lapatinib rate constants from the literature: ErbB2 (Table 13); assay type: binding
[2] = target: T1, ErbB2; conditions: cited from earlier work
[3] = test system: AKT phosphorylation (pAKT) in NCI-ADRr cells; experiment: AKT phosphorylation dose response curves for ErbB ligands (ELISA); assay type: cell-based
Procedure: (§1) For stimulation of the cells, the cells are seeded in 100 μl complete media at 35,000 cells per well in 96 well tissue culture plates and incubated overnight in a humidified atmosphere of 5% CO2, 95% air and 37 degrees Celsius. Cells are then switched to serum free media: RPMI-1640 media (Gibco) supplemented with, 2 mM L-glutamine (Gibco) and units/mL Pen-Strep (Gibco). Starved cells are incubated in a humidified atmosphere of 5% CO2, 95% air and 37 degrees Celsius for 20-24 hours prior to stimulation.
(§2) Levels of protein phosphorylation in the stimulated cells are measured by ELISA. Capture antibodies against ErbB1 (R&D Systems, AF231), ErbB2 (R&D Systems, MAB1129), ErbB3 (R&D Systems, MAB3481) and AKT (Upstate, 05-591MG) are incubated in 384 well black flat-bottom polystyrene high-binding plates (Corning, Catalog #3708) overnight at room temperature. The ELISA plates are blocked with 2% bovine serum albumin (BSA) and phosphate buffered saline (PBS) for one hour then incubated with lysates diluted in 2% BSA, 0.1% Tween-20 and PBS for two hours at room temp. In between each incubation, the plates are washed three times with 0.05% Tween-20 in PBS. ELISAs for measuring phospho-ErbB1, -ErbB2 and -ErbB3 are incubated with phospho-tyrosine horseradish peroxidase (HRP) linked monoclonal antibody (R&D Systems, HAM 1676) for two hours. ELISAs measuring phospho-AKT are incubated with primary serine 473 specific anti-phospho AKT mouse monoclonal antibody (Cell Signaling Technologies, Catalog #5102) for 2 hours, then incubated with Streptavidin-HRP(R&D Systems, Catalog #DY998) for 30 minutes. All ELISAs are visualized with SuperSignal ELISA Pico Chemiluminescent Substrate (Pierce, Catalog #37069) and luminescent signal is measured using a luminometer.

[4] = test system: ErbB3 phosphorylation (pErbB3) in NCI-ADRr cells; experiment: ErbB3 phosphorylation dose response curves for ErbB ligands (ELISA); assay type: cell-based
Procedure: as §1, §2

[5] = test system: ErbB2 phosphorylation (pErbB2) in NCI-ADRr cells; experiment: ErbB2 phosphorylation dose response curves for ErbB ligands (ELISA); assay type: cell-based
Procedure: as §1, §2

[6] = target: T2, ErbB1 phosphorylation (pErbB1) in NCI-ADRr cells (Homo sapiens, UniProt P00533); experiment: ErbB1 phosphorylation dose response curves for ErbB ligands (ELISA); assay type: cell-based
T2 construct: endogenous in cells; host or cells: NCI-ADRr (ADRr) cells
Procedure: as §1, §2

[7] = target: ErbB1 (Homo sapiens, UniProt P00533); experiment: ErbB signaling computational model: BTC ligand binding parameters; conditions: model parameter
Description: (§3) The ErbB receptor signaling network model consists of three receptors (ErbB1, ErbB2, ErbB3), a receptor phosphatase, phosphatidylinositol 3-kinase (PI3K, which binds the receptors) and components of the PI3K-AKT cascade (phosphatidylinositol bisphosphate, PIP2, phosphoinositide-dependent protein kinase, PDK1, PTEN deleted from chromosome 10, PTEN, serine, threonine protein kinase also known as protein kinase B, AKT, Protein phosphatase 2A, PP2A) (see Table 8 below).
(§4) Included in the model were the ligand-induced dimerization, internalization, recycling, and degradation as described in the literature for all homo- and heterodimers (Hendriks, B. S. et al. (2003) J. Biol. Chem. 278:23343-23351; Wang, Z. et al. (1999) Mol. Biol. Cell 10:1621-1636). Receptor dimer stabilities, using the relative scale as published in Shankaran, H. et al. (2008) Biochem. Biophys. Res. Commun. 371:220-224, were implemented, where the coexpression of […] biases signaling to the cell surface and retards signal downregulation and where the simultaneous coexpression of ErbB1-3 leads to an abundance of ErbB2-ErbB3 heterodimers. Therefore, ErbB3-containing dimers internalize and degrade slower than do ErbB1 homodimers or ErbB1-ErbB2 heterodimers. Constitutive dimerization was also included, although ligand-free dimers were assumed not to trigger any downstream signaling (Yu, X. et al. (2002) Mol. Biol. Cell 13:2547-2557) and to remain at the cell surface. ErbB ligands bind with different affinities to ErbB homo- and heterodimers (Teramura, Y. et al. (2006) EMBO J. 25:4215-4222), but to reduce the number of kinetic parameters to be estimated and to describe the experimental data with the simplest model possible, we constrained the binding affinity of the ligands to ErbB homo- and heterodimers to be the same.
(§5) Many of the reaction rate parameters are unknown in the cell system we studied and therefore had to be estimated (see Table 10 below). To avoid biasing the starting point, all parameters were set to default values (Aldridge, B. B. et al. (2006) Nat. Cell. Biol. 8:1195-1203). The number of parameters estimated was limited by performing the estimation in two stages: first the model was calibrated against the experimentally observed ErbB receptor phosphorylation data; second, the parameters sensitive to AKT phosphorylation were optimized against the experimental data. Estimated values were only accepted if the parameters were constrained under multiple parameter runs using a genetic algorithm with a population size of 50 and 25 generations (Mathworks, MA). […] The normalized sensitivities of each species were integrated over the two hour stimulation, and parameters with normalized, integrated sensitivities greater than an arbitrary threshold of 1000 are listed in Table 11 below. As mentioned above, ErbB4 phosphorylation was not included into the parameter estimation because the cell line studied had barely detectable ErbB4 (see Table 3 below). ErbB4 reactions are parameterized according to ErbB3 reactions.

[8] = target: ErbB3 (Homo sapiens, UniProt P21860); experiment: ErbB signaling computational model: HRG ligand binding parameters; conditions: model parameter
Description: as §3, §4, §5

[9] = target: ErbB1 on NCI-ADRr cells (UniProt P00533); experiment: cell-based or functional assay
[10] = target: ErbB3 on NCI-ADRr cells (UniProt P21860); experiment: cell-based or functional assay

In the case of CS(=O)(=O)CCNCc1ccc(-c2ccc3ncnc(Nc4ccc(OCc5cccc(F)c5)c(Cl)c4)c3c2)o1 [lapatinib], the “kfLapatinib_4: Lapatinib inhibitor binding to 2-2 dimers” value ([1]; 2-2 dimers) is given as 3.00E−12 molecules^−1 sec^−1, the “kfLapatinib_2: Lapatinib inhibitor binding from ErbB2 or 2-3 dimers” value ([1]; unit conversion from M^−1s^−1 /(Vmedia * Av/Num_cells)) is given as 1.50E−12 molecules^−1 sec^−1 and the “Lapatinib inhibitor binding from ErbB2 or 2-3 dimers (on-rate before unit conversion)” value [2] is given as “Unit conversion calculated as 2.95e3 M^−1s^−1/”. For the same molecule, the “krLapatinib_2: Lapatinib inhibitor dissociation to ErbB2 or 2-3 dimers” value [2] was 3.83e-05 s⁻¹.

In the case of AR: amphiregulin, ErbB1 binding ligand, the “pAKT % stimulation at 5 min relative to maximum” value [3] is reported as 28.0%, the EC50 [4] is reported as 380 nM and the “pErbB3 % stimulation at 5 min relative to maximum” value [4] is reported as 17.0%. The “pErbB2 % stimulation at 5 min relative to maximum” value [5] was 54.0%, the EC50 [6] was 37 nM and the “pErbB1 % stimulation at 5 min relative to maximum” value [6] was 95.0%.

For “BTC: betacellulin, ErbB ligand which binds primarily to ErbB1”, the EC50 [4] was 100 nM, the “kf3: BTC binding to E1” value [7] was 5.00 × 10^−11 molecules-1 sec-1 and the “kr3: BTC dissociation from E1” value [7] was 0.001 s⁻¹. For the same molecule, the “kf5: BTC binding to E1 heterodimers” value ([7]; E1 heterodimers) was 5.00 × 10^−11 molecules-1 sec-1, the “kf4: BTC binding to E1 homodimers” value ([7]; E1 homodimers) was 5.00 × 10^−11 molecules-1 sec-1 and the “kf129: BTC binding in the endosome” value ([7]; endosome) was 3.8 molecules-1 sec-1. It also gave an EC50 [6] of 5.7 nM.

In the case of Epiregulin: epiregulin, ErbB ligand, the “pAKT % stimulation at 5 min relative to maximum” value [3] is reported as 11.0%, the “pErbB2 % stimulation at 5 min relative to maximum” value [5] is reported as 18.0% and the “pErbB1 % stimulation at 5 min relative to maximum” value [6] is reported as 9.0%.

In the case of “HB-EGF: heparin-binding epidermal growth factor, ErbB ligand”, the “pAKT % stimulation at 5 min relative to maximum” value [3] is reported as 20.0%, the “pErbB3 % stimulation at 5 min relative to maximum” value [4] is reported as 32.0% and the EC50 [5] is reported as 230 nM. The “pErbB2 % stimulation at 5 min relative to maximum” value [5] was 94.0%, the EC50 [6] was 21 nM and the “pErbB1 % stimulation at 5 min relative to maximum” value [6] was 87.0%.

With “HRG1-β: heregulin, ErbB receptor ligand which binds to ErbB3 and ErbB4” the “kr1: HRG dissociation from E3” value [8] was 0.001 s⁻¹, the “kf2: HRG binding to E3:E2 dimers” value ([8]; E3:E2 dimers) was 5.00 × 10^−11 molecules-1 sec-1 and the “kr2: HRG dissociation from E3:E2 dimers” value ([8]; E3:E2 dimers) was 0.001 s⁻¹. For the same molecule, the “kf127: HRG binding in the endosome” value ([8]; endosome) was 3.8 molecules-1 sec-1, the “kf1: HRG binding to E3 or E4” value ([8]; unit conversion from 1e5M-1s-1) was 5.00 × 10^−11 molecules-1 sec-1 and the EC50 [3] was 1.9 nM. The “pAKT % stimulation at 5 min relative to maximum” value [3] was 100.0%, the EC50 [4] was 9.9 nM and the “pErbB3 % stimulation at 5 min relative to maximum” value [4] was 100.0%. For the same molecule, the EC50 [5] was 7 nM, the “pErbB2 % stimulation at 5 min relative to maximum” value [5] was 43.0% and the “pErbB1 % stimulation at 5 min relative to maximum” value [6] was 0.0%.

“TGFα: transforming growth factor alpha, ErbB1 binding ligand” showed an EC50 [6] of 30 nM.

“betacellulin (from UniProt P35070 32-111) (ligand)” showed an EC50 [nM] of pErbB1 dose response, NCI-ADRr cells [9] of 5.7 nM and an EC50 [nM] of pErbB3 dose response, NCI-ADRr cells [9] of 100 nM.

“heparin-binding epidermal growth factor (from UniProt Q99075 63-148) (ligand)” showed an EC50 [nM] of pErbB1 dose response, NCI-ADRr cells [9] of 21 nM, an EC50 [nM] of pErbB2 dose response, NCI-ADRr cells [9] of 230 nM and a pAKT, % stimulation at 5 min relative to maximum, NCI-ADRr cells [9] of 20%. It also gave a pErbB1, % stimulation at 5 min relative to maximum, NCI-ADRr cells [9] of 87%, a pErbB2, % stimulation at 5 min relative to maximum, NCI-ADRr cells [9] of 94% and a pErbB3, % stimulation at 5 min relative to maximum, NCI-ADRr cells [9] of 32%.

“transforming growth factor alpha (from UniProt P01135 40-89) (ligand)” showed an EC50 [nM] of pErbB1 dose response, NCI-ADRr cells [9] of 30 nM.

B1: heregulin HRG1-β (ligand, UniProt Q02297-6 177-241, looked up)
chain: SHLVKCAEKEKTFCVNGGECFMVKDLSNPSRYLCKCPNEFTGDRCQNYVMASFYKHLGIEFMEAE
Molecule B1 has an EC50 [nM] of pAKT dose response, NCI-ADRr cells [10] of 1.9 nM, an EC50 [nM] of pErbB2 dose response, NCI-ADRr cells [10] of 7 nM and an EC50 [nM] of pErbB3 dose response, NCI-ADRr cells [10] of 9.9 nM. The pAKT, % stimulation at 5 min relative to maximum, NCI-ADRr cells [10] was 100%, the pErbB1, % stimulation at 5 min relative to maximum, NCI-ADRr cells [10] was 0% and the pErbB2, % stimulation at 5 min relative to maximum, NCI-ADRr cells [10] was 43%. The pErbB3, % stimulation at 5 min relative to maximum, NCI-ADRr cells [10] was 100%.

B2: Epigen (ligand, UniProt Q6UW88 24-104, looked up)
chain: AVTVTPPITAQQGNWTVNKTEADNIEGPIALKFSHLCLEDHNSYCINGACAFHHELEKAICRCFTGYTGERCEHLTLTSYA
For B2, the “pAKT % stimulation at 5 min relative to maximum” value [3] was 11.0%, the “pErbB3 % stimulation at 5 min relative to maximum” value [4] was 3.0% and the “pErbB2 % stimulation at 5 min relative to maximum” value [5] was 25.0%. For the same molecule, the pAKT, % stimulation at 5 min relative to maximum, NCI-ADRr cells [9] was 11%, the pErbB1, % stimulation at 5 min relative to maximum, NCI-ADRr cells [9] was 12% and the pErbB2, % stimulation at 5 min relative to maximum, NCI-ADRr cells [9] was 25%. For the same molecule, the pErbB3, % stimulation at 5 min relative to maximum, NCI-ADRr cells [9] was 3% and the “pErbB1 % stimulation at 5 min relative to maximum” value [6] was 12.0%.

B3: amphiregulin (ligand, UniProt P15514 101-198, looked up)
chain: SVRVEQVVKPPQNKTESENTSDKPKRKKKGGKNGKNRRNRKKKNPCNAEFQNFCIHGECKYIEHLEAVTCKCQQEYFGERCGEKSMKTHSMIDSSLSK
With B3 the EC50 [nM] of pErbB1 dose response, NCI-ADRr cells [9] was 37 nM, the EC50 [nM] of pErbB3 dose response, NCI-ADRr cells [9] was 380 nM and the pAKT, % stimulation at 5 min relative to maximum, NCI-ADRr cells [9] was 28%. For the same molecule, the pErbB1, % stimulation at 5 min relative to maximum, NCI-ADRr cells [9] was 95%, the pErbB2, % stimulation at 5 min relative to maximum, NCI-ADRr cells [9] was 54% and the pErbB3, % stimulation at 5 min relative to maximum, NCI-ADRr cells [9] was 17%.
